Assay results published in patent publication US20240059799A1 (Pfizer, published 2024).

T1: recombinant human TL1A (human, UniProt O95150 71-251)
T1 construct: The ELISA method says only 'recombinant TL1A' coated on plates; homotrimeric cytokine; also called TNFSF15; recombinant TL1A
T1 chain: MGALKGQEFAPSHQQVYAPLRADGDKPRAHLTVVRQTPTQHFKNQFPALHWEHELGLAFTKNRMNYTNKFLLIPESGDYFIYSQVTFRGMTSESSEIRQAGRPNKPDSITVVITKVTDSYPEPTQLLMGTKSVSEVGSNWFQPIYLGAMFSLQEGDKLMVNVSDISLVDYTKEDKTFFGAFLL


Biological target: T1, recombinant human TL1A
Assay: competition ELISA on coated recombinant TL1A; competitor biotinylated TL1A-0002
Procedure: For this competition ELISA assay procedure, 96-well high binding plates (Corning, product number 3590) were coated with 1 μg/mL recombinant TL1A in 100 μL/well in Phospate Buffered Saline (PBS) overnight at 4° C. Plates were then blocked in PBS+0.02% casein solution and washed with PBS+0.05% Tween-20 following standard ELISA protocol. […] Plates were washed with PBS+0.05% Tween-20 following standard ELISA protocol, and Streptavidin-HRP (Southern Biotech, product number 7100-05) diluted to 1:10,000 in assay buffer was added to plates and incubated for 25-30 minutes at room temperature. Next, the plates were washed with PBS+0.05% Tween-20 following standard ELISA protocol, and then TMB substrate (BioFX Laboratories, catalog number TMBW-0100-01) was added to plates. Reactions were stopped after approximately 5 minutes by adding 0.18 M ortho-phosphoric acid to each well and absorbance was read at 450 nm.

Row | Bioactivity relative to TL1A-0002 [fold] | IC50 [µM] | Binder
1 | 1 | 0.005 | TL1A-0002 (antibody, human IgG1, kappa, V domains shown, human IgG1 effector-function-minimized / human kappa; also called parental TL1A-0002 antibody) VH: QVQLVQSGAEVKKPGASVKVSCKASGYDFTYYGISWVRQAPGQGLEWMGWISTYNGNTHYARMLQGRVTMTTDTSTRTAYMELRSLRSDDTAVYYCARENYYGSGAYRGGMDVWGQGTTVTVSS VL: EIVLTQSPATLSLSPGERATLSCRASQSVSSYLAWYQQKPGQAPRLLIYDASNRATGIPARFSGSGSGTDFTLTISSLEPEDFAVYYCQQRSNWPWTFGQGTKVEIKR
2 | 2.7 | 0.0135 | TL1A-0252 (antibody, V domains shown, IgG1 effector-minimized/kappa) VH: QVQLVQSGAEVKKPGASVKVSCKASGYDFTYYGISWVRQAPGQGLEWMGWISTYNTNTHYAPSLQGRVTMTTDTSTSTAYMELRSLRSDDTAVYYCARESYYGSGAFRGGMDVWGQGTTVTVSS VL: DIQMTQSPSSLSASVGDRVTITCRASQSVSSYLAWYQQKPGKAPKLLIYDASNRATGVPSRFSGSGSGTDFTLTISSLQPEDFATYYCQQRSNWPWTFGQGTKVEIKR
3 | 2.6 | 0.0133 | TL1A-0246 (antibody, V domains shown, IgG1 effector-minimized/kappa) VH: QVQLVQSGAEVKKPGASVKVSCKASGYDFTYYGISWVRQAPGQGLEWMGWISTYNTGTHYAPSLQGRVTMTTDTSTSTAYMELRSLRSDDTAVYYCARESYYGSGAFRGGMDVWGQGTTVTVSS VL: DIQMTQSPSSLSASVGDRVTITCRASQSVSSYLAWYQQKPGKAPKLLIYDASNRATGVPSRFSGSGSGTDFTLTISSLQPEDFATYYCQQRSNWPWTFGQGTKVEIKR
4 | 2.7 | 0.0134 | TL1A-0253 (antibody, V domains shown, IgG1 effector-minimized/kappa) VH: QVQLVQSGAEVKKPGASVKVSCKASGYDFTYYGISWVRQAPGQGLEWMGWISTYNTNTHYAPSLQGRVTMTTDTSTSTAYMELRSLRSDDTAVYYCARESYYGSGAHRGGMDVWGQGTTVTVSS VL: DIQMTQSPSSLSASVGDRVTITCRASQSVSSYLAWYQQKPGKAPKLLIYDASNRATGVPSRFSGSGSGTDFTLTISSLQPEDFATYYCQQRSNWPWTFGQGTKVEIKR
5 | 3.2 | 0.0162 | TL1A-0251 (antibody, V domains shown, IgG1 effector-minimized/kappa) VH: QVQLVQSGAEVKKPGASVKVSCKASGYDFTYYGISWVRQAPGQGLEWMGWISTYNTVTHYAPSLQGRVTMTTDTSTSTAYMELRSLRSDDTAVYYCARESYYGSGAHRGGMDVWGQGTTVTVSS VL: DIQMTQSPSSLSASVGDRVTITCRASQSVSSYLAWYQQKPGKAPKLLIYDASNRATGVPSRFSGSGSGTDFTLTISSLQPEDFATYYCQQRSNWPWTFGQGTKVEIKR
6 | 2.4 | 0.0122 | TL1A-0247 (antibody, V domains shown, IgG1 effector-minimized/kappa) VH: QVQLVQSGAEVKKPGASVKVSCKASGYDFTYYGISWVRQAPGQGLEWMGWISTYNTGTHYAPSLQGRVTMTTDTSTSTAYMELRSLRSDDTAVYYCARESYYGSGAHRGGMDVWGQGTTVTVSS VL: DIQMTQSPSSLSASVGDRVTITCRASQSVSSYLAWYQQKPGKAPKLLIYDASNRATGVPSRFSGSGSGTDFTLTISSLQPEDFATYYCQQRSNWPWTFGQGTKVEIKR
7 | 3.1 | 0.0157 | TL1A-0249 (antibody, V domains shown, IgG1 effector-minimized/kappa) VH: QVQLVQSGAEVKKPGASVKVSCKASGYDFTYYGISWVRQAPGQGLEWMGWISTYNTGTHYAQKLQGRVTMTTDTSTSTAYMELRSLRSDDTAVYYCARESYYGSGAHRGGMDVWGQGTTVTVSS VL: DIQMTQSPSSLSASVGDRVTITCRASQSVSSYLAWYQQKPGKAPKLLIYDASNRATGVPSRFSGSGSGTDFTLTISSLQPEDFATYYCQQRSNWPWTFGQGTKVEIKR
8 | 3.5 | 0.0176 | TL1A-0244 (antibody, V domains shown, IgG1 effector-minimized/kappa) VH: QVQLVQSGAEVKKPGASVKVSCKASGYDFTYYGISWVRQAPGQGLEWMGWISTYNDNTHYAQKLQGRVTMTTDTSTSTAYMELRSLRSDDTAVYYCARESYYGSGAFRGGMDVWGQGTTVTVSS VL: DIQMTQSPSSLSASVGDRVTITCRASQSVSSYLAWYQQKPGKAPKLLIYDASNRATGVPSRFSGSGSGTDFTLTISSLQPEDFATYYCQQRSNWPWTFGQGTKVEIKR
9 | 2.9 | 0.0145 | TL1A-0243 (antibody, V domains shown, IgG1 effector-minimized/kappa) VH: QVQLVQSGAEVKKPGASVKVSCKASGYDFTYYGISWVRQAPGQGLEWMGWISTYNDNTHYAPSLQGRVTMTTDTSTSTAYMELRSLRSDDTAVYYCARESYYGSGAHRGGMDVWGQGTTVTVSS VL: DIQMTQSPSSLSASVGDRVTITCRASQSVSSYLAWYQQKPGKAPKLLIYDASNRATGVPSRFSGSGSGTDFTLTISSLQPEDFATYYCQQRSNWPWTFGQGTKVEIKR
10 | 0.8 | 0.0038 | TL1A-0189 (antibody, human IgG1, kappa, V domains shown, IgG1 effector-minimized/kappa) VH: QVQLVQSGAEVKKPGASVKVSCKASGYDFTYYGISWVRQAPGQGLEWMGWISTYNGNTHYARMLQGRVTMTTDTSTSTAYMELRSLRSDDTAVYYCARENYYGSGAYRGGMDVWGQGTTVTVSS VL: DIQMTQSPSSLSASVGDRVTITCRASQSVSSYLAWYQQKPGKAPKLLIYDASNRATGVPSRFSGSGSGTDFTLTISSLQPEDFATYYCQQRSNWPWTFGQGTKVEIKR
11 | 3.2 | 0.0162 | TL1A-0242 (antibody, V domains shown, IgG1 effector-minimized/kappa) VH: QVQLVQSGAEVKKPGASVKVSCKASGYDFTYYGISWVRQAPGQGLEWMGWISTYNDNTHYAPSLQGRVTMTTDTSTSTAYMELRSLRSDDTAVYYCARESYYGSGAFRGGMDVWGQGTTVTVSS VL: DIQMTQSPSSLSASVGDRVTITCRASQSVSSYLAWYQQKPGKAPKLLIYDASNRATGVPSRFSGSGSGTDFTLTISSLQPEDFATYYCQQRSNWPWTFGQGTKVEIKR
12 | 3.2 | 0.0162 | TL1A-0245 (antibody, V domains shown, IgG1 effector-minimized/kappa) VH: QVQLVQSGAEVKKPGASVKVSCKASGYDFTYYGISWVRQAPGQGLEWMGWISTYNDNTHYAQKLQGRVTMTTDTSTSTAYMELRSLRSDDTAVYYCARESYYGSGAHRGGMDVWGQGTTVTVSS VL: DIQMTQSPSSLSASVGDRVTITCRASQSVSSYLAWYQQKPGKAPKLLIYDASNRATGVPSRFSGSGSGTDFTLTISSLQPEDFATYYCQQRSNWPWTFGQGTKVEIKR
13 | 0.8 | 0.0042 | TL1A-0042 (antibody, human IgG1, kappa, V domains shown, TL1A-0002 heavy chain with light chain CDRs grafted onto IGKV1-39*01; human IgG1 effector-function-minimized / human kappa) VH: QVQLVQSGAEVKKPGASVKVSCKASGYDFTYYGISWVRQAPGQGLEWMGWISTYNGNTHYARMLQGRVTMTTDTSTRTAYMELRSLRSDDTAVYYCARENYYGSGAYRGGMDVWGQGTTVTVSS VL: DIQMTQSPSSLSASVGDRVTITCRASQSVSSYLAWYQQKPGKAPKLLIYDASNRATGVPSRFSGSGSGTDFTLTISSLQPEDFATYYCQQRSNWPWTFGQGTKVEIKR
14 | 3.2 | 0.016 | TL1A-0248 (antibody, V domains shown, IgG1 effector-minimized/kappa) VH: QVQLVQSGAEVKKPGASVKVSCKASGYDFTYYGISWVRQAPGQGLEWMGWISTYNTGTHYAQKLQGRVTMTTDTSTSTAYMELRSLRSDDTAVYYCARESYYGSGAFRGGMDVWGQGTTVTVSS VL: DIQMTQSPSSLSASVGDRVTITCRASQSVSSYLAWYQQKPGKAPKLLIYDASNRATGVPSRFSGSGSGTDFTLTISSLQPEDFATYYCQQRSNWPWTFGQGTKVEIKR
